Source: patent US20140213531A1 (POLYPHOR, published 2014)

T1: Elastase from human neutrophils (human, UniProt P08246 30-247, limits assumed)
T1 sequence (looked up): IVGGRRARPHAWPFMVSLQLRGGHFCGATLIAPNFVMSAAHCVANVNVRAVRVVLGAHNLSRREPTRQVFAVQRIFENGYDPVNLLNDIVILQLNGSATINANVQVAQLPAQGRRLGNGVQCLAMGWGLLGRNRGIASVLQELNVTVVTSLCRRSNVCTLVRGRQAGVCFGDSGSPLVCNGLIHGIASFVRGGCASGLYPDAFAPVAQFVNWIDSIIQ

T2: CathepsinG, from human neutrophils (human, UniProt P08311 21-244)
T2 sequence (looked up): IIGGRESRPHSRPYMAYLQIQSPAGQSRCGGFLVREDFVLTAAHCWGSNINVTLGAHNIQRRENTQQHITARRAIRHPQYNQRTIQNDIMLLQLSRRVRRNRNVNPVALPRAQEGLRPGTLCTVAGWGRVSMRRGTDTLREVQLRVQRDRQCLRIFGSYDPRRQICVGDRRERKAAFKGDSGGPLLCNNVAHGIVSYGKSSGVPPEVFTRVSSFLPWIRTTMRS

T3: Chymase, from human skin (human, UniProt P23946 22-247)
T3 sequence (looked up): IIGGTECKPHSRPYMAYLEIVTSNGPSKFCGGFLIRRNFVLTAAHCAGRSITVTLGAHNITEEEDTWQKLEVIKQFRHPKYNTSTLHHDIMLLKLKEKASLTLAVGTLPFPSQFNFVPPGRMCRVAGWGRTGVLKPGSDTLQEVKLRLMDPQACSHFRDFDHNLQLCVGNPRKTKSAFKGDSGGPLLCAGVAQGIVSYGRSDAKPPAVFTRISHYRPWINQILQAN

B1: Example 82 (peptide)
peptide: XCTASXPPQCY
HELM: PEPTIDE1{[Nle].C.T.A.S.[Cha].P.P.Q.C.Y.[dP].P}$PEPTIDE1,PEPTIDE1,2:R3-10:R3|PEPTIDE1,PEPTIDE1,1:R1-13:R2$$$V2.0
SMILES: CCCC[C@@H]1NC(=O)[C@@H]2CCCN2C(=O)[C@H]2CCCN2C(=O)[C@H](Cc2ccc(O)cc2)NC(=O)[C@@H]2CSSC[C@H](NC1=O)C(=O)N[C@@H]([C@@H](C)O)C(=O)N[C@@H](C)C(=O)N[C@@H](CO)C(=O)N[C@@H](CC1CCCCC1)C(=O)N1CCC[C@H]1C(=O)N1CCC[C@H]1C(=O)N[C@@H](CCC(N)=O)C(=O)N2
B2: Example 60 (peptide)
peptide: FCTXSDPPICY
HELM: PEPTIDE1{F.C.T.[Nle].S.D.P.P.I.C.Y.[dP].P}$PEPTIDE1,PEPTIDE1,2:R3-10:R3|PEPTIDE1,PEPTIDE1,1:R1-13:R2$$$V2.0
SMILES: CCCC[C@@H]1NC(=O)[C@H]([C@@H](C)O)NC(=O)[C@@H]2CSSC[C@H](NC(=O)[C@H]([C@@H](C)CC)NC(=O)[C@@H]3CCCN3C(=O)[C@@H]3CCCN3C(=O)[C@H](CC(=O)O)NC(=O)[C@H](CO)NC1=O)C(=O)N[C@@H](Cc1ccc(O)cc1)C(=O)N1CCC[C@@H]1C(=O)N1CCC[C@H]1C(=O)N[C@@H](Cc1ccccc1)C(=O)N2
B3: Example 30 (peptide)
peptide: XCTKSDPPICY
HELM: PEPTIDE1{[O=C([C@H](CCc1ccccc1)N[*:1])[*:2]].C.T.K.S.D.P.P.I.C.Y.[dP].P}$PEPTIDE1,PEPTIDE1,2:R3-10:R3|PEPTIDE1,PEPTIDE1,1:R1-13:R2$$$V2.0
SMILES: CC[C@H](C)[C@@H]1NC(=O)[C@@H]2CCCN2C(=O)[C@@H]2CCCN2C(=O)[C@H](CC(=O)O)NC(=O)[C@H](CO)NC(=O)[C@H](CCCCN)NC(=O)[C@H]([C@@H](C)O)NC(=O)[C@@H]2CSSC[C@H](NC1=O)C(=O)N[C@@H](Cc1ccc(O)cc1)C(=O)N1CCC[C@@H]1C(=O)N1CCC[C@H]1C(=O)N[C@@H](CCc1ccccc1)C(=O)N2
B4: Example 58 (peptide)
peptide: ICTKSDPPXCR
HELM: PEPTIDE1{I.C.T.K.S.D.P.P.[Cha].C.R.[dP].P}$PEPTIDE1,PEPTIDE1,2:R3-10:R3|PEPTIDE1,PEPTIDE1,1:R1-13:R2$$$V2.0
SMILES: CC[C@H](C)[C@@H]1NC(=O)[C@@H]2CCCN2C(=O)[C@H]2CCCN2C(=O)[C@H](CCCNC(=N)N)NC(=O)[C@@H]2CSSC[C@H](NC1=O)C(=O)N[C@@H]([C@@H](C)O)C(=O)N[C@@H](CCCCN)C(=O)N[C@@H](CO)C(=O)N[C@@H](CC(=O)O)C(=O)N1CCC[C@H]1C(=O)N1CCC[C@H]1C(=O)N[C@@H](CC1CCCCC1)C(=O)N2
B5: Example 23 (peptide)
peptide: FCTXSDPPICY
HELM: PEPTIDE1{F.C.T.[Nle].S.D.P.P.I.C.Y.[dP].P}$PEPTIDE1,PEPTIDE1,2:R3-10:R3|PEPTIDE1,PEPTIDE1,1:R1-13:R2$$$V2.0
SMILES: CCCC[C@@H]1NC(=O)[C@H]([C@@H](C)O)NC(=O)[C@@H]2CSSC[C@H](NC(=O)[C@H]([C@@H](C)CC)NC(=O)[C@@H]3CCCN3C(=O)[C@@H]3CCCN3C(=O)[C@H](CC(=O)O)NC(=O)[C@H](CO)NC1=O)C(=O)N[C@@H](Cc1ccc(O)cc1)C(=O)N1CCC[C@@H]1C(=O)N1CCC[C@H]1C(=O)N[C@@H](Cc1ccccc1)C(=O)N2
B6: Example 19 (peptide)
peptide: ICTKSDPPXCR
HELM: PEPTIDE1{I.C.T.K.S.D.P.P.[Nle].C.R.[dP].P}$PEPTIDE1,PEPTIDE1,2:R3-10:R3|PEPTIDE1,PEPTIDE1,1:R1-13:R2$$$V2.0
SMILES: CCCC[C@@H]1NC(=O)[C@@H]2CCCN2C(=O)[C@@H]2CCCN2C(=O)[C@H](CC(=O)O)NC(=O)[C@H](CO)NC(=O)[C@H](CCCCN)NC(=O)[C@H]([C@@H](C)O)NC(=O)[C@@H]2CSSC[C@H](NC1=O)C(=O)N[C@@H](CCCNC(=N)N)C(=O)N1CCC[C@@H]1C(=O)N1CCC[C@H]1C(=O)N[C@@H]([C@@H](C)CC)C(=O)N2
B7: Example 20 (peptide)
peptide: ICTKSDPPXCR
HELM: PEPTIDE1{I.C.T.K.S.D.P.P.[Cha].C.R.[dP].P}$PEPTIDE1,PEPTIDE1,2:R3-10:R3|PEPTIDE1,PEPTIDE1,1:R1-13:R2$$$V2.0
SMILES: CC[C@H](C)[C@@H]1NC(=O)[C@@H]2CCCN2C(=O)[C@H]2CCCN2C(=O)[C@H](CCCNC(=N)N)NC(=O)[C@@H]2CSSC[C@H](NC1=O)C(=O)N[C@@H]([C@@H](C)O)C(=O)N[C@@H](CCCCN)C(=O)N[C@@H](CO)C(=O)N[C@@H](CC(=O)O)C(=O)N1CCC[C@H]1C(=O)N1CCC[C@H]1C(=O)N[C@@H](CC1CCCCC1)C(=O)N2
B8: Example 57 (peptide)
peptide: ICTKSDPPXCR
HELM: PEPTIDE1{I.C.T.K.S.D.P.P.[Nle].C.R.[dP].P}$PEPTIDE1,PEPTIDE1,2:R3-10:R3|PEPTIDE1,PEPTIDE1,1:R1-13:R2$$$V2.0
SMILES: CCCC[C@@H]1NC(=O)[C@@H]2CCCN2C(=O)[C@@H]2CCCN2C(=O)[C@H](CC(=O)O)NC(=O)[C@H](CO)NC(=O)[C@H](CCCCN)NC(=O)[C@H]([C@@H](C)O)NC(=O)[C@@H]2CSSC[C@H](NC1=O)C(=O)N[C@@H](CCCNC(=N)N)C(=O)N1CCC[C@@H]1C(=O)N1CCC[C@H]1C(=O)N[C@@H]([C@@H](C)CC)C(=O)N2

The binders below were run against Coagulation Factor Xa, from human plasma (human, UniProt P00742 41-488, limits assumed) (assay: cell-based or functional assay).
Sequence of Coagulation Factor Xa, from human plasma (P00742 41-488 limits assumed): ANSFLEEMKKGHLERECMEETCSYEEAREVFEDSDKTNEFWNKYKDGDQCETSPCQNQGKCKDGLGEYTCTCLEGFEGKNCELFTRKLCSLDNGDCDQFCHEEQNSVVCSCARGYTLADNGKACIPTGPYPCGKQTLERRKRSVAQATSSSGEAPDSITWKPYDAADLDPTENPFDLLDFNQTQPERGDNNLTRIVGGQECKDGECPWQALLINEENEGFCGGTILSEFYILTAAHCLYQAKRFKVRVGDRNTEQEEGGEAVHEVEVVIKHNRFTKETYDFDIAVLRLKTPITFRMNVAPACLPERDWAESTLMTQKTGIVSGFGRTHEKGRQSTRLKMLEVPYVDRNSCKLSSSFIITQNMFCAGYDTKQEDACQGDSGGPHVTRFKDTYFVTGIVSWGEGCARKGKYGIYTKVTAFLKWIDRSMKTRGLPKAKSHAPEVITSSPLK

% inhibition at 100 µM [%]	Binder
15.3	B1
11	B2
3	B3
25	B4
11	B5
32	B6
25	B7
32	B8

These binders were tested against Urokinase from human urine (human, UniProt P00749 21-431, limits assumed) (assay: cell-based or functional assay).

% inhibition at 100 µM [%]	Binder
9	B2
9	B3
6.7	B4
9	B5
4	B6
6.7	B7
4	B8

Each binder was assayed against T1, Elastase from human neutrophils (assay: cell-based or functional assay).

IC50 [nmol]	Binder
18	B1
> 100000	B2
49900	B3
> 100000	B4
> 100000	B5
> 100000	B6
> 100000	B7
> 100000	B8

Each binder was assayed against Tryptase, from human lung (human, UniProt Q15661 31-275, limits assumed) (assay: cell-based or functional assay).
Sequence of Tryptase, from human lung (Q15661 31-275 limits assumed): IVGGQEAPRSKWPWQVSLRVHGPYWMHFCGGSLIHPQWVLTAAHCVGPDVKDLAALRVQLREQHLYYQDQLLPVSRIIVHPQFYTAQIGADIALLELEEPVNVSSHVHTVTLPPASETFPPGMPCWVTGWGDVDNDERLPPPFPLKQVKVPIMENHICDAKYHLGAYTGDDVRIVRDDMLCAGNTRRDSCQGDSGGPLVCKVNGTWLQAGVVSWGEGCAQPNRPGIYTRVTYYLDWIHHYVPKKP

% inhibition at 100 µM [%]	Binder
44.5	B1

What follows are binders tested against Trypsin, Iodination grade, from human pancreas (human, UniProt P07477 24-247) (assay: cell-based or functional assay).

% inhibition at 100 µM [%]	Binder
90	B2
98	B3
97	B4
90	B5
94	B6
97	B7
94	B8

The binders below were run against T2, CathepsinG, from human neutrophils (assay: cell-based or functional assay).

IC50 [nmol]	Binder
38	B2
39	B3
47.5	B4
38	B5
41	B6
48	B7
41	B8

These binders were tested against Thrombin, from Human Plasma, high activity (human, UniProt P00734 328-622) (assay: cell-based or functional assay).

% inhibition at 100 µM [%]	Binder
0	B2
2	B3
28	B4
0	B5
11	B6
28	B7
11	B8

The binders below were run against T3, Chymase, from human skin (assay: cell-based or functional assay).

% inhibition at 100 µM [%]	Binder
60	B2
0	B3
44.1	B4
60	B5
26.9	B6
44.1	B7
26.9	B8

What follows are binders tested against Chymotrypsin, from human pancreas (human, UniProt P17538 19-263) (assay: cell-based or functional assay).
Sequence of Chymotrypsin, from human pancreas (P17538 19-263): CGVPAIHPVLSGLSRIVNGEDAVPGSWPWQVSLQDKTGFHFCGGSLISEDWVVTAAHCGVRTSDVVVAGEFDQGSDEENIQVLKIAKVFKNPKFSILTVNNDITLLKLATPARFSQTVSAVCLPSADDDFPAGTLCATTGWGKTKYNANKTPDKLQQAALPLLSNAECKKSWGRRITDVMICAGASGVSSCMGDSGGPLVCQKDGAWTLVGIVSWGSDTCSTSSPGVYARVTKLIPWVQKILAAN

% inhibition at 100 µM [%]	Binder
72.9	B1
4	B2
49	B3
0	B4
4	B5
0	B6
0	B7
0	B8
